In patent US20090220476A1 (CELLECTIS, published 2009):
Numbering of substitutions follows the chain as printed.

T1: I-CreI Q44, A68, N70, N75, P05725
T1 chain: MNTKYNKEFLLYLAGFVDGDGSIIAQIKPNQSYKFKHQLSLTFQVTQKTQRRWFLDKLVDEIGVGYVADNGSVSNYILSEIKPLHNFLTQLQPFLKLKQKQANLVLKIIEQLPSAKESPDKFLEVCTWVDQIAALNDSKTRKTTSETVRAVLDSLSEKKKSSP

T2: I-CreI combinatorial mutant NNSRK/ARR, P05725
T2 chain: T1 chain with K28N, Y33S, Q38R, S40K, Q44A, A68R, N70R

T3: I-CreI combinatorial mutant NNSRK/ASR, P05725
T3 chain: T1 chain with K28N, Y33S, Q38R, S40K, Q44A, A68S, N70R

B1: I-CreI K44, T68, G70, N75 (protein)
chain: T1 chain with Q44K, A68T, N70G
B2: I-CreI combinatorial mutant NNSRK/ASR (enzyme, UniProt P05725 1-163, looked up)
chain: T1 chain with K28N, Y33S, Q38R, S40K, Q44A, A68S, N70R
notes: The scaffold ORF has three additional C-terminal codons (AAD)
B3: I-CreI combinatorial mutant KNHQS/KEG (enzyme, UniProt P05725 1-163, looked up)
chain: T1 chain with Y33H, Q44K, A68E, N70G
notes: as for B2
B4: I-CreI combinatorial mutant KNHQS/KAS (enzyme, UniProt P05725 1-163, looked up)
chain: T1 chain with Y33H, Q44K, N70S
notes: as for B2
B5: I-CreI combinatorial mutant QNRQR/KEG (protein)
chain: T1 chain with K28Q, Y33R, S40R, Q44K, A68E, N70G
B6: I-CreI combinatorial mutant NNSRK/ARR (enzyme, UniProt P05725 1-163, looked up)
chain: T1 chain with K28N, Y33S, Q38R, S40K, Q44A, A68R, N70R
notes: as for B2

How the values were obtained:
[1] = target: T1, I-CreI Q44, A68, N70, N75, P05725
[2] = target: the molecule itself; experiment: far-UV CD, 1H-NMR and analytical ultracentrifugation of purified protein; self-association (homodimer)
Protocol: Novel I-CreI variants were expressed, purified, and analyzed for in vitro cleavage as reported previously (Arnould et al., precited). Circular dichroism (CD) measurements were performed on a Jasco J-810 spectropolarimeter using a 0.2 cm path length quartz cuvette. Equilibrium unfolding was induced increasing temperature at a rate of 1° C./min (using a programmable Peltier thermoelectric). Samples were prepared by dialysis against 25 mM potassium phosphate buffer, pH 7.5, at protein concentrations of 20 μM.
Finally, analysis of the structure and stability of this group of combinatorial mutants was performed using far-UV CD (FIG. 19d), ¹H-NMR and analytical ultracentrifugation. […] Thus, the two sets of residues that were mutated, K28, N30, Y33, Q38 and S40 on one hand, Q44, R68 and R70 on the other, define two relatively independent DNA binding sub-domains.

[3] = target: T2, I-CreI combinatorial mutant NNSRK/ARR, …
[4] = target: T3, I-CreI combinatorial mutant NNSRK/ASR, …

Protein	binding result [2]	further results
B1	–	cleavage of chimeric DNA targets gtt/gcc and gtt/cct (yeast LacZ recombination assay, co-expression) [1]: co-expression of the K44, T68, G70, N75 (KTG) and Q44, A68, N70, N75 (QAN) mutants resulted in the cleavage of two chimeric targets, gtt/gcc and gtt/cct, that were not cleaved by either mutant alone
B2	binds	–
B3	binds	cleavage of the chimeric site COMB1 (yeast LacZ recombination assay, co-expression) [3]: co-expression resulted in cleavage of the chimeric sequence COMB1 among all tested heterodimers (KNHQS/KEG×NNSRK/ARR named as the example with the higher level of activity)
B4	binds	in vitro cleavage of the COMB1 target by purified proteins incubated together [3]: Cleavage of the COMB1 target was also detected in vitro when the KNHQS/KAS and NNSRK/ARR purified proteins were incubated together with the COMB1 target in our conditions, while incubation of single protein did not give rise to any detectable cleavage activity. However, the cleavage efficiency was e
B5	–	cleavage of the chimeric site COMB1 (yeast LacZ recombination assay, co-expression) [4]: co-expression resulted in cleavage of the chimeric sequence COMB1 among all tested heterodimers (QNRQR/KEG×NNSRK/ASR named as the example with the weaker activity)
B6	binds	–
